Target: TSH receptor (TSHR) on human ML-1 cells (human (endogenous in ML-1)) (UniProt P16473)
Experiment: radioligand binding; real-time kinetic binding assay with LigandTracer; 10^6 ML-1 cells seeded in a tilted Petri dish; 2 mL of 30 nM radiolabeled ligand in culture medium for 1 h, then medium without ligand to follow release; Kd from binding/release curve (GraphPad Prism)

Sequence of TSH receptor (TSHR) on human ML-1 cells (human (endogenous in ML-1)) (P16473 21-764): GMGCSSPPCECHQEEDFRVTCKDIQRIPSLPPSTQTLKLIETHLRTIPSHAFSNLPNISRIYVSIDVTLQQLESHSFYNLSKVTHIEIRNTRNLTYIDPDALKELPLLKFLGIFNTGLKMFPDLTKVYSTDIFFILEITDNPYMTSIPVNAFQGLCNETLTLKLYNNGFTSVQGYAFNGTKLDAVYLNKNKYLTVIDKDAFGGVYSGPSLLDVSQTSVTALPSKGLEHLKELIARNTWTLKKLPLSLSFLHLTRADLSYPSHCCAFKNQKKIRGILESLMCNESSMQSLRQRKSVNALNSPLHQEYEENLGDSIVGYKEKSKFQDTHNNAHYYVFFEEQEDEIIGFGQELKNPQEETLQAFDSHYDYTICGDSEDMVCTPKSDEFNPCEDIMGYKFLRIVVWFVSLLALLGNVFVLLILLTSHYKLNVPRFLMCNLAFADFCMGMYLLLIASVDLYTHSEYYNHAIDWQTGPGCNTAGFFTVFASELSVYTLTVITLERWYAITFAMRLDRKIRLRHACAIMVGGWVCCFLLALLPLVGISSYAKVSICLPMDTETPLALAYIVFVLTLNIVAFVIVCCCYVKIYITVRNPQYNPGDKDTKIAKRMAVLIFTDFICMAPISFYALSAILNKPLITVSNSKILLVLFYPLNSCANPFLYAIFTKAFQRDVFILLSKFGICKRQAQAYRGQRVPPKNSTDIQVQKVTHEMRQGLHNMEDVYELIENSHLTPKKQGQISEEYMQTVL
Sequence of 99mTc-HYNIC-TR1402, radiolabeled superagonist recombinant human TSH analogue TR1402 (P01215 25-116): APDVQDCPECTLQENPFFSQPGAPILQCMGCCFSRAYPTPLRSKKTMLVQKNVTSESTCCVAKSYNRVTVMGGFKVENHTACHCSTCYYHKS
Sequence of 99mTc-HYNIC-TR1402, radiolabeled superagonist recombinant human TSH analogue TR1402 (P01222 21-132): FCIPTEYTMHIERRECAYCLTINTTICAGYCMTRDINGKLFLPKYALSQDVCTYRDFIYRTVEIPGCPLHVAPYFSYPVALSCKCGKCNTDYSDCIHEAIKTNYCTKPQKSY
Sequence of 99mTc-HYNIC-TR1401, radiolabeled superagonist recombinant human TSH analogue TR1401 (P01215 25-116): as the sequence (P01215 25-116) above
Sequence of 99mTc-HYNIC-TR1401, radiolabeled superagonist recombinant human TSH analogue TR1401 (P01222 21-132): as the sequence (P01222 21-132) above

| Substance | Kd |
| --- | --- |
| 99mTc-HYNIC-TR1401, radiolabeled superagonist recombinant human TSH analogue TR1401 (from UniProt P01215 25-116; P01222 21-132) (ligand) | 2.7 nM |
| 99mTc-HYNIC-TR1402, radiolabeled superagonist recombinant human TSH analogue TR1402 (from UniProt P01215 25-116; P01222 21-132) (ligand) | 0.5 nM |

— PMC8123688
